Assay [1] concerns the target T1, human integrin α5β1 on cells (endogenous, HUVEC; tumor or endothelial-expressed) (human, UniProt P08648 42-1049; P05556 21-798).
T1 construct: whole, on cells; also called cell surface integrin α5; endogenous α5β1
Kind of assay: FACS on HUVEC, geometric mean against mAb concentration, two-state equilibrium model. The protocol:
The 22B5/DLE antibody was tested for its binding affinity to cell surface integrin α5 using a FACS assay, employing endogenous human integrin α5β1 expressing cells (HUVEC). Briefly, the cells were detached using trypsin-EDTA and washed with cold PBS. After being aliquoted into 96-well plates, the cells were blocked by serum and incubated with different concentrations of specific mAb for 1 hour at 4° C. Subsequently, the cells were washed and incubated with an anti-human κ secondary antibody conjugated with the R-PE fluorophore and analyzed using a FACSCalibur flow cytometer. 10,000 events were collected for each sample without applying any gating. For KD determination, the Geometric Mean of each sample histogram was calculated and plotted as a function of the mAb concentration. KD was calculated after fitting to a two-state equilibrium model.

Assay [2] concerns the target T1, human integrin α5β1 on cells …. Kind of assay: cell-based or functional assay.
Assay [3] has as its target T2, human recombinant α5β1 extracellular domain (human, UniProt P08648 42-995; P05556 21-728).
T2 construct: extracellular domain; also called α5β1 recombinant extracellular domain; extracellular domain of α5β1
Kind of assay: Biacore, antibody immobilised, α5β1 extracellular domain flowed, 25.0 C, 4.0 mM CaCl2. How it is done: Binding kinetics and nominal avidity of 22B5/DLE to the extracellular domain of α5β1 was determined using Biacore analysis (Biacore AB, Uppsala, Sweden). To perform BIAcore kinetic analyses, the 22B5/DLE antibody was immobilized on a biosensor chip and various concentrations of human recombinant α5β1 extracellular domain were flowed across the surface at 25.0° C. (see FIG. 3). The binding data were fit globally to a simple one-to-one binding model with drifting baseline. 22B5/DLE binds reversibly to α5β1. […] The KD was greater when measured in the absence of divalent cations, consistent with cation-dependent activation of integrin.
On the technique in general: Surface plasmon resonance follows binding to a sensor surface in real time, without labels.

For assay [4], the target named is T1, human integrin α5β1 on cells …. Kind of assay: FACS on HUVEC (endogenous human α5β1), GeoMean against mAb concentration, fitted; experiment 030207.
In assay [5] the target is T3, Human FcγRI (human, UniProt P12314 16-288, limits assumed).
T3 construct: Construct used in Biacore is not described
Kind of assay: Biacore. How it is done:
(§1) The ability of 22B5/DLE, which contains the IgG1 DLE triple mutations (as discussed previously in Example 2), to enhance binding to the FcγRs was evaluated in a Biacore binding experiment. The FcγR binding affinities of 22B5/DLE were compared with the binding affinity of wild type (wt) IgG1. […] The binding affinity comparison of 22B5/DLE and wild type IgG1 was also evaluated against the murine Fcγ receptors. The greatest enhancement in binding was to the mFcγRIV, followed by mFcγRI, and mFcγRIII (see FIG. 5).

Assay [6] deals with T4, Murine FcγRIII (murine, UniProt P08508 31-215, limits assumed).
T4 construct: Construct not described; also called mFcγRIII
T4 sequence (looked up): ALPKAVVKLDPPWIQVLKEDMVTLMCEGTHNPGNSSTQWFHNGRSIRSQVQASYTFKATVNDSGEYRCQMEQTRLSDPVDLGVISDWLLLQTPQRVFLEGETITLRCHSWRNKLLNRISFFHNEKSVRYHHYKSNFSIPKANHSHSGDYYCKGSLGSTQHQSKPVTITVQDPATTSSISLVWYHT
Kind of assay: Biacore. The protocol:
as §1

Assay [7] addresses T5, Human FcγRIIIa/158F (human, UniProt P08637 17-208, limits assumed).
T5 construct: also called Human FcγRIII/158F
Kind of assay: Biacore. The protocol:
as §1

In assay [8] the target is T6, Murine FcγRI (murine, UniProt P26151 25-297, limits assumed).
T6 construct: Construct not described; also called mFcγRI
T6 sequence (looked up): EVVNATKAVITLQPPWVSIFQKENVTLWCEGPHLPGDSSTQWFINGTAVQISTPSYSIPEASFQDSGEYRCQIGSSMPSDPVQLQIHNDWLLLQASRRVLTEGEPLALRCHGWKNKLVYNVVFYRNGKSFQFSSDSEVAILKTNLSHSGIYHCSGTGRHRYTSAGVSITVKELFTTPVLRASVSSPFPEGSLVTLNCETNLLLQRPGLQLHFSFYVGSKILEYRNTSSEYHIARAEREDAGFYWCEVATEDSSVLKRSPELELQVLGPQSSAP
Kind of assay: Biacore. How it is done:
as §1

The target of assay [9] is T7, Human FcγRIIIa/158V (human, UniProt P08637 17-208, limits assumed).
T7 construct: also called Human FcγRIII/158V
Kind of assay: Biacore. The protocol:
as §1

For assay [10], the target named is T8, Murine FcγRIV (murine, UniProt A0A0B4J1G0 21-203).
T8 construct: Construct not described; also called mFcγRIV
T8 sequence: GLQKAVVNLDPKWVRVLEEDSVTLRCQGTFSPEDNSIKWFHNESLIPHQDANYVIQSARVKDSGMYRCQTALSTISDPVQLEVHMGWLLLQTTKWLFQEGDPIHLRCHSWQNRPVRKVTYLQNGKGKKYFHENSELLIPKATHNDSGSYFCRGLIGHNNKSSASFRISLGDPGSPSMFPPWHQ
Kind of assay: Biacore. How it is done: as §1

Assay [11] deals with T9, Human FcγRIIa/131R (human, UniProt P12318 36-218, limits assumed).
T9 construct: Polymorphic variant 131R; construct not described
T9 sequence (looked up): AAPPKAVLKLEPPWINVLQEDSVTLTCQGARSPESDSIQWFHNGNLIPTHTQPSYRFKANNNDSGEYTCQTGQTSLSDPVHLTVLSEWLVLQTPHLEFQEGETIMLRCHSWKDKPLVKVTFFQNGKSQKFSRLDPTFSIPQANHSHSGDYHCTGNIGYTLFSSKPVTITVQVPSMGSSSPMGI
Kind of assay: Biacore. How it is done: as §1

In assay [12] the target is T10, Human FcγRIIa/131H (human, UniProt P12318 36-218, limits assumed).
T10 construct: Polymorphic variant 131H; construct not described
T10 sequence (looked up): T9 sequence (looked up) with R132H
Kind of assay: Biacore. How it is done: as §1

Residue numbers refer to the chain shown, from its start. Names may count otherwise.

T2 sequence (P08648 42-995, chain 1 of 2): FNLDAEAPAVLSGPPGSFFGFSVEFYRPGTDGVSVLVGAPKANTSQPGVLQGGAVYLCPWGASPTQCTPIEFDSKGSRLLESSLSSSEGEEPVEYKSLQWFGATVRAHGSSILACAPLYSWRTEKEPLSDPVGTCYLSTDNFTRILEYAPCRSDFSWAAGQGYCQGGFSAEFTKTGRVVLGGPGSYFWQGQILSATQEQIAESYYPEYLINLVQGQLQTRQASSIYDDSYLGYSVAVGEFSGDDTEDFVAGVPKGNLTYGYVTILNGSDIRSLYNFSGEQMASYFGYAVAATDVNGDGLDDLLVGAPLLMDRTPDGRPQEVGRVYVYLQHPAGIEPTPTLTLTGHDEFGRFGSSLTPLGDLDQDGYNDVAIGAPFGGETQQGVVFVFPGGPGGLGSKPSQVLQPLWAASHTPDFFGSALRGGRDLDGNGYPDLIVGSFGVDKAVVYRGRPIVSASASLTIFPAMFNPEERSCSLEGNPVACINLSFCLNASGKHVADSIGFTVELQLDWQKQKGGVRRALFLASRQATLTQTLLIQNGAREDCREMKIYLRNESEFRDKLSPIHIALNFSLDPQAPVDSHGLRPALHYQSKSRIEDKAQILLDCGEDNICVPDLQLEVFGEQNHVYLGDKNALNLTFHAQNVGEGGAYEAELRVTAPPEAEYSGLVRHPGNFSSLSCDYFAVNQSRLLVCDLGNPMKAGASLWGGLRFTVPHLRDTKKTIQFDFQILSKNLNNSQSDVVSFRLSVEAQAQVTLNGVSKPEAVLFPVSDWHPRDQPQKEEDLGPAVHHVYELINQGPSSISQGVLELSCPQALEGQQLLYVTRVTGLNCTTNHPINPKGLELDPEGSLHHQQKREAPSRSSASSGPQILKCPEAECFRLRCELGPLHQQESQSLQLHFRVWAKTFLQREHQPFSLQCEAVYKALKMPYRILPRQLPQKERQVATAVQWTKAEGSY
T2 sequence (P05556 21-728, chain 2 of 2): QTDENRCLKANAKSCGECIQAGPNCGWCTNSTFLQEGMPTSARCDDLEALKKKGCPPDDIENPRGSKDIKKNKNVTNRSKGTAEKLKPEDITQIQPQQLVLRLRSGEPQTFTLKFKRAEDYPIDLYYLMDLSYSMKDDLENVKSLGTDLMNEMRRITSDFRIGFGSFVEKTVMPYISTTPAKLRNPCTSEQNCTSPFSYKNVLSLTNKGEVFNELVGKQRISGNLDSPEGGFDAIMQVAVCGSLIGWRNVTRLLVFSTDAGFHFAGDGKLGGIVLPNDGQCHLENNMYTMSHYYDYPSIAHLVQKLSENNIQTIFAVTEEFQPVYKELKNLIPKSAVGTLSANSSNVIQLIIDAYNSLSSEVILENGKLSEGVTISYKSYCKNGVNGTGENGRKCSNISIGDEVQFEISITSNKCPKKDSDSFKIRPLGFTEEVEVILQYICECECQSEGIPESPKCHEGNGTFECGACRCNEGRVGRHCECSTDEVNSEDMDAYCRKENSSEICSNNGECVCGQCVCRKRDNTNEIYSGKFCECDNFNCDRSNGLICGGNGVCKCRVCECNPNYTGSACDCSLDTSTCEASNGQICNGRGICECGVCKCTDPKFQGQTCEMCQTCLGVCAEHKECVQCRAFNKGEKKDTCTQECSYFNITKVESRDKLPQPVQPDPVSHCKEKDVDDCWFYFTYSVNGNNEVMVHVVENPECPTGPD
T1 sequence (P08648 42-1049, chain 1 of 2): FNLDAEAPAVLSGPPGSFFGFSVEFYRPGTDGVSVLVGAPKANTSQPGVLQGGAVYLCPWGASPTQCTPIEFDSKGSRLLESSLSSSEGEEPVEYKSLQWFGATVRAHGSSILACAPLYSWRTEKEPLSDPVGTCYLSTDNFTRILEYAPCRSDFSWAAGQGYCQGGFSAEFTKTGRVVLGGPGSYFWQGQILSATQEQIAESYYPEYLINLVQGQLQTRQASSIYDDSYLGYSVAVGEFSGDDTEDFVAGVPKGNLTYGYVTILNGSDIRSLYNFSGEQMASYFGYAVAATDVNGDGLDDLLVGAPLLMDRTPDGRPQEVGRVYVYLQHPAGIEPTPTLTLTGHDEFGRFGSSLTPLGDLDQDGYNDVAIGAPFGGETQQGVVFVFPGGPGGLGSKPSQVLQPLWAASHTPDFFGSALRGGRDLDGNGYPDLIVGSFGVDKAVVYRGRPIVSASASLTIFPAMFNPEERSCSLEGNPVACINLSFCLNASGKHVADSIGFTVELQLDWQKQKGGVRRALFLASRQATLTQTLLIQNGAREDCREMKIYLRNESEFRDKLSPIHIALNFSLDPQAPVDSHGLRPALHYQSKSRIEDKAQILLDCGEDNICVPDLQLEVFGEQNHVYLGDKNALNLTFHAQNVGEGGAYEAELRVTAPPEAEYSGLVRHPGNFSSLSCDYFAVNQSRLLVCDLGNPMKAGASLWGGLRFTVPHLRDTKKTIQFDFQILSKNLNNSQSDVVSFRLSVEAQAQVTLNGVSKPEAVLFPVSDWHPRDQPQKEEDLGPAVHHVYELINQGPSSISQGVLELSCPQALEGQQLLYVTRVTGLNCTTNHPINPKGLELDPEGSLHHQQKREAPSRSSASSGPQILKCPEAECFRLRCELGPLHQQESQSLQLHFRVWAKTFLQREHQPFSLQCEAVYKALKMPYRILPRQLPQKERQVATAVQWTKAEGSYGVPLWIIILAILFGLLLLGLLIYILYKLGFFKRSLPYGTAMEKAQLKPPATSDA
T1 sequence (P05556 21-798, chain 2 of 2): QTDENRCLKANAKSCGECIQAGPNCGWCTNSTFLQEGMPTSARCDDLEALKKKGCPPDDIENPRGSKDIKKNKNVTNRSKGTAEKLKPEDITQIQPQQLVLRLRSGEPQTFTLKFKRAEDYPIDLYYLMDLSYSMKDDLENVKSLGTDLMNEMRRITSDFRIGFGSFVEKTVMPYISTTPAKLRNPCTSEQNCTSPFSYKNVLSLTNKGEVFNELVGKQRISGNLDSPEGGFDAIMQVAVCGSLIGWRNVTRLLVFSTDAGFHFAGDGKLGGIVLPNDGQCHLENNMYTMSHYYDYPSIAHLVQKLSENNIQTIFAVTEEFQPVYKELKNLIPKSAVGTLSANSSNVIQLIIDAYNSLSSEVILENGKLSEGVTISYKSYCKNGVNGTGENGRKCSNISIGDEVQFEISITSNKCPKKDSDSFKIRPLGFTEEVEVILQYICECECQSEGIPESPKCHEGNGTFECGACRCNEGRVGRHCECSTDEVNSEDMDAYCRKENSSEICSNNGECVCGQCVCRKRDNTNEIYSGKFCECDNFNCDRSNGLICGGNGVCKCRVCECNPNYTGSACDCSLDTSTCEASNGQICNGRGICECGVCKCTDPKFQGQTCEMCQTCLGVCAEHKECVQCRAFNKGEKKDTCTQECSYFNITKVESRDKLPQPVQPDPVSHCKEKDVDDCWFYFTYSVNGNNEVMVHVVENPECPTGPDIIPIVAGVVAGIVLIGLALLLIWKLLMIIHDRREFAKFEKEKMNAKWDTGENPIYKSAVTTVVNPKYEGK
T7 sequence (P08637 17-208 F176V limits assumed): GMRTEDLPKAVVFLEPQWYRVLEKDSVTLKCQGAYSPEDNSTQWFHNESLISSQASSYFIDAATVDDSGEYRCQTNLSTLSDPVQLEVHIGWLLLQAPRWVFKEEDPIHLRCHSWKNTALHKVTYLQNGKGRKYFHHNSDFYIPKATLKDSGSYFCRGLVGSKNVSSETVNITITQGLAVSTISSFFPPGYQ
T3 sequence (P12314 16-288 limits assumed): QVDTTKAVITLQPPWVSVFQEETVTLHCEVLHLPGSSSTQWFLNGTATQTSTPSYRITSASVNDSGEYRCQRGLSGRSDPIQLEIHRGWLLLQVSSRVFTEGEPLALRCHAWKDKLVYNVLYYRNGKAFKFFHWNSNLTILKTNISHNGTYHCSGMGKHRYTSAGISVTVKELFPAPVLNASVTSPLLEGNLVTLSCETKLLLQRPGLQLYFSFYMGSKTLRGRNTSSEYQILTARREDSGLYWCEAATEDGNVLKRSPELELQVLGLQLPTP
T5 sequence (P08637 17-208 limits assumed): as the sequence (P08637 17-208 F176V limits assumed) above, with V160F counted along it

B1: 22B5/DLE (antibody, human IgG1, kappa)
heavy: QLQLQESGPGLVKPSETLSLTCTVSGGSISSSSYWGWIRQPPGKGLEWIGSIYYSGRNYNNPSLKSRVTISVDTSKNQFSLKLSSVTAADTAVYYCARHYYGSGSSYYYYDLDVWGQGTTVTVSSASTKGPSVFPLAPSSKSTSGGTAALGCLVKDYFPEPVTVSWNSGALTSGVHTFPAVLQSSGLYSLSSVVTVPSSSLGTQTYICNVNHKPSNTKVDKKVEPKSCDKTHTCPPCPAPELLGGPDVFLFPPKPKDTLMISRTPEVTCVVVDVSHEDPEVKFNWYVDGVEVHNAKTKPREEQYNSTYRVVSVLTVLHQDWLNGKEYKCKVSNKALPLPEEKTISKAKGQPREPQVYTLPPSREEMTKNQVSLTCLVKGFYPSDIAVEWESNGQPENNYKTTPPVLDSDGSFFLYSKLTVDKSRWQQGNVFSCSVMHEALHNHYTQKSLSLSPGK
light: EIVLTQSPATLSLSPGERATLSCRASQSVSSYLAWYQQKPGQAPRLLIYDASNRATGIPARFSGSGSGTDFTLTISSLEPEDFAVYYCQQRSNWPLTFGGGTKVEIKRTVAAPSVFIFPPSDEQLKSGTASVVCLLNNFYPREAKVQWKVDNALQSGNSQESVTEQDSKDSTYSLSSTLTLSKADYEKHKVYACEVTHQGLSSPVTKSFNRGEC
notes: Human IgG1 with Fc mutations S247D, A338L, I340E; the VH already holds the germline back-mutations I30S and N33S; also called 22B5 IgG1 DLE; 22B5 G1 DLE
Turning to B1, the Kd (as a rule, the equilibrium constant for the complex coming apart) is 2.15 nM in assay [1]; 2.7 nM in assay [3]; 2.42 nM in [4]; 5.8 nM in assay [5]; 1700 nM in [6]; 27 nM in [7]. In addition, the Kd is 96 nM in assay [8]; 9.4 nM in assay [9]; 9.1 nM in assay [10]; 650 nM in assay [11]; 1000 nM in assay [12]. Besides, in assay [2], the “ADCC EC50 (up to 80% target cell lysis), human PBMCs” value was determined as 0.04 nM. Moreover, the koff – broadly, the rate constant with which the complex falls apart – in [3] stood at 0.0012 s⁻¹. Further, in assay [3], the kon (in general, the rate constant with which the complex forms) was found to be 450000 M⁻¹ s⁻¹.
